Data as given in publication doi:10.1101/2021.04.15.439997.

How the values were obtained:
[1] = target: Strep-tagged glucose-6-phosphate dehydrogenase (G6PDH) from Synechocystis (Synechocystis sp. PCC 6803) (UniProt P73411)
[2] = target: Strep-tagged glucose-6-phosphate dehydrogenase (G6PDH) from Synechocystis (Synechocystis sp. PCC 6803) (UniProt P73411); assay: SEC-MALS

Strep-tagged glucose-6-phosphate dehydrogenase (G6PDH) from Synechocystis (Synechocystis sp. PCC 6803), sequence (P73411 whole entry): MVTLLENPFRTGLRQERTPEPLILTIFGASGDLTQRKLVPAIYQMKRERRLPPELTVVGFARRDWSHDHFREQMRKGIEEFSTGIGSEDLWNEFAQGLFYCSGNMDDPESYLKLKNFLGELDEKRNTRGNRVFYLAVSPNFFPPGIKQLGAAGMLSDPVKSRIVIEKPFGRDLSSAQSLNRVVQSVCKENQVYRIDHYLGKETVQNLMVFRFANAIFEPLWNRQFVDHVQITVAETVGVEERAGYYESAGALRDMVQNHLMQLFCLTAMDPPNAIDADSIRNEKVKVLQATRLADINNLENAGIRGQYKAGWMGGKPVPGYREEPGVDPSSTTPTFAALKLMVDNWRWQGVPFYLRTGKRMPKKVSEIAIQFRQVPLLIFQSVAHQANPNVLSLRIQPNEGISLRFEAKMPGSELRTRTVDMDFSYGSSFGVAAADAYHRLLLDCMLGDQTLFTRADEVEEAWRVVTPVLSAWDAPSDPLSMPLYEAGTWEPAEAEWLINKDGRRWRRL

- G6PDH activity after pre-incubation of OpcA with DTTred, compared to the control [1]: 30%
- G6PDH activity after pre-incubation of OpcA with Synechocystis thioredoxin TxrA [1]: 10%
- G6PDH enzyme kinetics: substrate affinity with OpcA added [1]: 6 fold
- stoichiometry N (subunits of OpcA per G6PDH tetramer) [2]: 4
Substance: Strep-tagged oxidative pentose phosphate cycle protein (OpcA) from Synechocystis (natural protein)
